Measurements from PMC6733935, “A convenient and efficient total solid-phase synthesis of DOTA-functionalized tumor-targeting peptides for PET imaging of cancer” (EJNMMI Research, 2019).
Where two headings read alike, the source gives them in different places. Square brackets hold non-standard residues; d marks the D form. Peptide text beside a SMILES is read from it. * marks the point of attachment. DOTA = O=C(O)CN1CCN(CC(=O)O)CCN(CC(=O)*)CCN(CC(=O)O)CC1; Cha = N[C@@H](CC1CCCCC1)C(=O)O; Nle = CCCC[C@H](N)C(=O)O; Ahx = NCCCCCC(=O)O

Key:
[1] = molecular target: T1, BN/GRP receptor-positive MDA-MB-231 human breast cancer cells (Homo sapiens, UniProt P30550); experiment: Saturation binding assay on MDA-MB-231 cells; details: n = 3-5 experiments
T1 construct: BN/GRP receptor-positive MDA-MB-231, MCF7, T47D human breast cancer, and PC3 human prostate cancer lines; host or cells: MDA-MB-231, MCF7, T47D (human breast cancer), PC3 (human prostate cancer); intact cells
Procedure: (§1) The cell binding of ^68Ga-radiolabeled peptides into BN/GRP receptor-positive MDA-MB-231, MCF7, T47D human breast cancer, and PC3 human prostate cancer lines (American Type Culture Collection, Rockville, MD, USA) was performed according to the method described previously. In brief, ∼ 300,000 cells (in 300 μL in low-serum media) were incubated with various amounts of radiopeptides, ranging between 0.1 and 25 nM of peptide (prepared from the serial dilutions of HPLC-purified radiopeptides), in duplicate for 60 min at room temperature. The initial concentrations of ^68Ga-labeled peptides were determined according to a well-established HPLC technique with simultaneous detection by UV absorbance. As the amount of BN peptide in the reaction mixture was too small to be detected by UV absorption at 220 nm, the radioactive peptide chromatograms from the HPLC analysis were compared (with UV chromatograms) with those of known concentrations of the corresponding nonradioactive peptides for the mass determination. Incubation was terminated by dilution with cold saline (300 μL) and the cells were pelleted by centrifugation. The cell pellets was then rapidly washed with cold saline to remove any unbound peptide and centrifuged to collect supernatants. Radioactivity in the cell pellet and the washings was measured in a γ-counter. Non-specific binding was determined in the presence of ~ 200-fold molar excess of unlabeled BN peptide. Specific binding is calculated by subtracting the non-specifically bound radioactivity from that of the total binding. The dissociation constant (Kd) was calculated using a plot of cell bound activity versus the concentration of the radioligand using GraphPad Prism software (GraphPad Software Inc., San Diego, CA, USA).

[2] = molecular target: T2, BN/GRP receptor-positive MCF7 human breast cancer cells (Homo sapiens, UniProt P30550); experiment: Saturation binding assay on MCF7 cells; details: n = 3-5 experiments
T2 construct: BN/GRP receptor-positive MDA-MB-231, MCF7, T47D human breast cancer, and PC3 human prostate cancer lines; host or cells: MDA-MB-231, MCF7, T47D (human breast cancer), PC3 (human prostate cancer); intact cells
Procedure: as §1

in vivo = assay type: in vivo, nude mice; details: female, nude, mouse, in vivo, total radioactivity
Procedure: (§2) BN/GRP receptor-positive MDA-MB-231 and PC3 cell lines (American Type Culture Collection, Rockville, USA) were grown as monolayers at 37 °C in a humidified atmosphere containing RPMI-1640 culture media with 10% fetal bovine serum (FBS) in tissue culture flasks. Twenty-four hours prior to conducting the tumor implantation, the media was replaced with RPMI-1640/10% FBS. The cells were grown to 80-90% confluency and harvested by trypsinization. After centrifugation, about 50 million cells were suspended in 1 mL media for implantation into mice. To prepare cells for inoculation, MDA-MB-231 or PC3 cancer cells with media were centrifuged, the media decanted, and the cell pellet was mixed with phosphate-buffered saline (PBS) to reach a concentration of approximately 5 million cells per 100 μL PBS. Human MDA-MB-231 breast cancer xenografts female mouse models were used for in vivo tumor-targeting experiments. For the implantation of tumor xenografts, approximately five million MDA-MB-231 cells in suspension of 100 μL sterile PBS were injected subcutaneously into the left thigh of each mouse. Tumors were allowed to grow for 4-6 weeks by which tumors had reached weights of 200-300 mg. After sufficient growth of tumors, animals were injected with 20-30 μCi of the radiotracers and the animals were sacrificed at specified time points. The uptake of ^68Ga-radiolabeled peptides in the tumors and other major body organs was calculated by γ-counting as described above.

MDA-MB-231 tumors = experiment: in vivo; assay type: in vivo, nude mice; details: for Uptake in Tumor: nude mice with MDA-MB-231 tumors, mean ± SD, n = 3-5
Procedure: as §2

[3] = system: PC3 prostate carcinoma xenografts; assay type: in vivo, nude mice; details: for uptake in the PC3 tumors / tumor-to-blood ratio / tumor-to-muscle ratio: nude mice bearing PC3 xenografts
Procedure: BN/GRP receptor-positive MDA-MB-231 and PC3 cell lines (American Type Culture Collection, Rockville, USA) were grown as monolayers at 37 °C in a humidified atmosphere containing RPMI-1640 culture media with 10% fetal bovine serum (FBS) in tissue culture flasks. Twenty-four hours prior to conducting the tumor implantation, the media was replaced with RPMI-1640/10% FBS. The cells were grown to 80-90% confluency and harvested by trypsinization. After centrifugation, about 50 million cells were suspended in 1 mL media for implantation into mice. To prepare cells for inoculation, MDA-MB-231 or PC3 cancer cells with media were centrifuged, the media decanted, and the cell pellet was mixed with phosphate-buffered saline (PBS) to reach a concentration of approximately 5 million cells per 100 μL PBS.
Based on encouraging biological and tumor-targeting properties, ^68Ga-DOTA(cyclen)-Ahx-BN was further tested in nude mice bearing PC3 prostate carcinoma xenografts. […] Kidney was the only major organ which retained most of the radioactivity (up to 6% ID/g) after 2 h p.i. […] The tumor-to-blood and tumor-to-muscle ratios were 3.27 and 12.62 at 1 h and 2.85 and 11.40 at 2 h p.i., respectively (data not shown).

[4] = ~300,000 cells, 0.1-25 nM radiopeptide, 60 min, room temperature, mean ± SD
[5] = Radioactivity in Urine + bladder
[6] = Uptake in Intestines (measured without their contents)
[7] = female, nude, mouse, in vivo, 1 h

Bmax (apparent number of binding sites per cell) ([1]; SD < 15%): 5.13 × 10^5 sites/cell
Kd [1, 4]: 12.7 ± 2.94 nM
Bmax (apparent number of binding sites per cell) ([2]; SD < 15%): 6.90 × 10^5 sites/cell
Kd [2, 4]: 9.8 ± 1.64 nM
Structure (SMILES): CCCC[C@H](NC(=O)[C@H](Cc1c[nH]cn1)NC(=O)[C@H](CC1CCCCC1)NC(=O)[C@@H](NC(=O)[C@H](C)NC(=O)[C@H](Cc1c[nH]c2ccccc12)NC(=O)[C@H](CCC(N)=O)NC(=O)[C@H](CS)NC(=O)CNC(=O)CNC(=O)CCCCCNC(=O)CN1CCN(CC(=O)O)CCN(CC(=O)O)CCN(CC(=O)O)CC1)C(C)C)C(=O)N[C@@H](CCSC)C(N)=O [^68Ga-DOTA-Ahx-BN Cyclen, metal not drawn] ({DOTA-Ahx}-GGCQWAV[Cha]H[Nle]M-NH2)
dose excreted at 1 h (in vivo; [5]): 64 ± 9.15%
dose excreted at 2 h (in vivo; [5]): 70 ± 8.7%
tissue uptake at 1 h (in vivo; Uptake in Blood): 0.92 ± 0.15 %ID/g
tissue uptake at 2 h (in vivo; Uptake in Blood): 0.51 ± 0.07 %ID/g
tissue uptake at 1 h (in vivo; [6]): 0.86 ± 0.12 %ID/g
tissue uptake at 2 h (in vivo; [6]): 0.61 ± 0.06 %ID/g
tissue uptake at 1 h (in vivo; Uptake in Kidneys): 4.93 ± 0.38 %ID/g
tissue uptake at 2 h (in vivo; Uptake in Kidneys): 4.01 ± 0.41 %ID/g
tissue uptake at 2 h (in vivo; Uptake in Lungs): 0.36 ± 0.03 %ID/g
tissue uptake at 1 h (in vivo; Uptake in Muscle): 0.23 ± 0.03 %ID/g
tissue uptake at 2 h (in vivo; Uptake in Muscle): 0.19 ± 0.02 %ID/g
tissue uptake at 1 h (in vivo; Uptake in Pancreas): 1.65 ± 0.14 %ID/g
tissue uptake at 2 h (in vivo; Uptake in Pancreas): 0.82 ± 0.1 %ID/g
tissue uptake at 1 h (in vivo; Uptake in Spleen): 0.25 ± 0.02 %ID/g
tissue uptake at 2 h (in vivo; Uptake in Spleen): 0.14 ± 0.01 %ID/g
tissue uptake at 1 h (in vivo; Uptake in Stomach): 0.73 ± 0.13 %ID/g
tissue uptake at 2 h (in vivo; Uptake in Stomach): 0.34 ± 0.05 %ID/g
washout from the tumors over 2 h (MDA-MB-231 tumors; MDA-MB-231 tumors, nude mice, 1 h vs 2 h p.i.): 28%
Uptake in Liver (MDA-MB-231 tumors; [7]): 1.02 ± 0.16 % ID/g
Uptake in Lungs (MDA-MB-231 tumors; [7]): 0.55 ± 0.10 % ID/g
Uptake in Liver (MDA-MB-231 tumors; female, nude, mouse, in vivo, 2 h): 0.91 ± 0.10 % ID/g
Uptake in Tumor (MDA-MB-231 tumors; 1 h p.i.): 2.32 ± 0.25 % ID/g
Uptake in Tumor (MDA-MB-231 tumors; 2 h p.i.): 1.65 ± 0.19 % ID/g
radioactivity retained in Kidney ([3]; mouse, in vivo): up to 6 % ID/g
uptake in the PC3 tumors ([3]; 1 h p.i.): 2.05 ± 0.54 % ID/g
tumor-to-blood ratio ([3]; 1 h p.i. (data not shown)): 3.27
tumor-to-muscle ratio ([3]; 1 h p.i. (data not shown)): 12.62
uptake in the PC3 tumors ([3]; 2 h p.i.): 1.34 ± 0.22 % ID/g
tumor-to-blood ratio ([3]; 2 h p.i. (data not shown)): 2.85
tumor-to-muscle ratio ([3]; 2 h p.i. (data not shown)): 11.40
